{"source": "the supplement of paper PMC11316812", "key": {"hTERT-HMEC": {"test_system": "hTERT-HMEC", "test": "percentage of EdU-negative (G0-arrested) nuclei per well, 72 h; higher = more G0 arrest", "conditions": "reference: sequence is the full UniProt precursor, the tested protein was the secreted form or ectodomain"}, "MCF7": {"test_system": "MCF7", "test": "percentage of EdU-negative (G0-arrested) nuclei per well, 72 h; higher = more G0 arrest", "conditions": "reference: sequence is the full UniProt precursor, the tested protein was the secreted form or ectodomain"}, "[1]": {"conditions": "protein concentration 0.0225 µM"}}, "note": "± gives the standard deviation of the averaged measurements.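 Also: secreted proteins added to cultured cells, EdU pulse at the end, nuclei found by Hoechst imaging, EdU status from nuclear versus surrounding ring intensity ratio, PBS as neutral control.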"}
{"sequence": "MLLLINVILTLWVSCANGQEVKPCDFPEIQHGGLYYKSLRRLYFPAAAGQSYSYYCDQNFVTPSGSYWDYIHCTQDGWSPTVPCLRTCSKSDVEIENGFISESSSIYILNEETQYNCKPGYATAEGNSSGSITCLQNGWSTQPICIKFCDMPVFENSRAKSNGMWFKLHDTLDYECYDGYESSYGNTTDSIVCGEDGWSHLPTCYNSSENCGPPPPISNGDTTSFPQKVYLPWSRVEYQCQSYYELQGSKYVTCSNGDWSEPPRCISMKPCEFPEIQHGHLYYENTRRPYFPVATGQSYSYYCDQNFVTPSGSYWDYIHCTQDGWLPTVPCLRTCSKSDIEIENGFISESSSIYILNKEIQYKCKPGYATADGNSSGSITCLQNGWSAQPICIKFCDMPVFENSRAKSNGMRFKLHDTLDYECYDGYEISYGNTTGSIVCGEDGWSHFPTCYNSSEKCGPPPPISNGDTTSFLLKVYVPQSRVEYQCQSYYELQGSNYVTCSNGEWSEPPRCIHPCIITEENMNKNNIQLKGKSDIKYYAKTGDTIEFMCKLGYNANTSVLSFQAVCREGIVEYPRCE", "values": [{"measurement": "percentage of EdU-negative", "setting": "hTERT-HMEC; [1]", "value": "4.84 ± 0.38", "unit": "%"}, {"measurement": "percentage of EdU-negative", "setting": "hTERT-HMEC; protein concentration 0.225 µM", "value": "4.68 ± 0.36", "unit": "%"}, {"measurement": "percentage of EdU-negative", "setting": "MCF7; [1]", "value": "24.7 ± 2.6", "unit": "%"}, {"measurement": "percentage of EdU-negative", "setting": "MCF7; protein concentration 0.225 µM", "value": "28.7 ± 0.4", "unit": "%"}]}
{"sequence": "MLLLINVILTLWVSCANGQVKPCDFPDIKHGGLFHENMRRPYFPVAVGKYYSYYCDEHFETPSGSYWDYIHCTQNGWSPAVPCLRKCYFPYLENGYNQNYGRKFVQGNSTEVACHPGYGLPKAQTTVTCTEKGWSPTPRCIRVRTCSKSDIEIENGFISESSSIYILNKEIQYKCKPGYATADGNSSGSITCLQNGWSAQPICINSSEKCGPPPPISNGDTTSFLLKVYVPQSRVEYQCQPYYELQGSNYVTCSNGEWSEPPRCIHPCIITEENMNKNNIKLKGRSDRKYYAKTGDTIEFMCKLGYNANTSILSFQAVCREGIVEYPRCE", "values": [{"measurement": "percentage of EdU-negative", "setting": "hTERT-HMEC; [1]", "value": "5.2 ± 0.45", "unit": "%"}, {"measurement": "percentage of EdU-negative", "setting": "hTERT-HMEC; protein concentration 0.225 µM", "value": "5.74 ± 0.65", "unit": "%"}, {"measurement": "percentage of EdU-negative", "setting": "MCF7; [1]", "value": "28 ± 0.75", "unit": "%"}, {"measurement": "percentage of EdU-negative", "setting": "MCF7; protein concentration 0.225 µM", "value": "29.4 ± 0.63", "unit": "%"}]}
{"sequence": "MLLLLLPLLWGRERAEGQTSKLLTMQSSVTVQEGLCVHVPCSFSYPSHGWIYPGPVVHGYWFREGANTDQDAPVATNNPARAVWEETRDRFHLLGDPHTKNCTLSIRDARRSDAGRYFFRMEKGSIKWNYKHHRLSVNVTALTHRPNILIPGTLESGCPQNLTCSVPWACEQGTPPMISWIGTSVSPLDPSTTRSSVLTLIPQPQDHGTSLTCQVTFPGASVTTNKTVHLNVSYPPQNLTMTVFQGDGTVSTVLGNGSSLSLPEGQSLRLVCAVDAVDSNPPARLSLSWRGLTLCPSQPSNPGVLELPWVHLRDAAEFTCRAQNPLGSQQVYLNVSLQSKATSGVTQGVVGGAGATALVFLSFCVIFVVVRSCRKKSARPAAGVGDTGIEDANAVRGSASQGPLTEPWAEDSPPDQPPPASARSSVGEGELQYASLSFQMVKPWDSRGQEATDTEYSEIKIHR [Q9Y336]", "values": [{"measurement": "percentage of EdU-negative", "setting": "hTERT-HMEC; [1]", "value": "5.01 ± 0.61", "unit": "%"}, {"measurement": "percentage of EdU-negative", "setting": "hTERT-HMEC; protein concentration 0.225 µM", "value": "4.21 ± 0.26", "unit": "%"}, {"measurement": "percentage of EdU-negative", "setting": "MCF7; [1]", "value": "26.3 ± 0.23", "unit": "%"}, {"measurement": "percentage of EdU-negative", "setting": "MCF7; protein concentration 0.225 µM", "value": "30.4 ± 0.4", "unit": "%"}]}
{"sequence": "MLLLLTLALLGGPTWAGKMYGPGGGKYFSTTEDYDHEITGLRVSVGLLLVKSVQVKLGDSWDVKLGALGGNTQEVTLQPGEYITKVFVAFQAFLRGMVMYTSKDRYFYFGKLDGQISSAYPSQEGQVLVGIYGQYQLLGIKSIGFEWNYPLEEPTTEPPVNLTYSANSPVGR [Q96DA0]", "values": [{"measurement": "percentage of EdU-negative", "setting": "hTERT-HMEC; [1]", "value": "5.62 ± 0.12", "unit": "%"}, {"measurement": "percentage of EdU-negative", "setting": "hTERT-HMEC; protein concentration 0.225 µM", "value": "9.31 ± 0.28", "unit": "%"}, {"measurement": "percentage of EdU-negative", "setting": "MCF7; [1]", "value": "25.49 ± 0.17", "unit": "%"}, {"measurement": "percentage of EdU-negative", "setting": "MCF7; protein concentration 0.225 µM", "value": "24.3 ± 2.2", "unit": "%"}]}
{"sequence": "MLLLPFQLLAVLFPGGNSEHAFQGPTSFHVIQTSSFTNSTWAQTQGSGWLDDLQIHGWDSDSGTAIFLKPWSKGNFSDKEVAELEEIFRVYIFGFAREVQDFAGDFQMKYPFEIQGIAGCELHSGGAIVSFLRGALGGLDFLSVKNASCVPSPEGGSRAQKFCALIIQYQGIMETVRILLYETCPRYLLGVLNAGKADLQRQVKPEAWLSSGPSPGPGRLQLVCHVSGFYPKPVWVMWMRGEQEQQGTQLGDILPNANWTWYLRATLDVADGEAAGLSCRVKHSSLEGQDIILYWRNPTSIGSIVLAIIVPSLLLLLCLALWYMRRRSYQNIP", "values": [{"measurement": "percentage of EdU-negative", "setting": "hTERT-HMEC; [1]", "value": "5.01 ± 0.84", "unit": "%"}, {"measurement": "percentage of EdU-negative", "setting": "hTERT-HMEC; protein concentration 0.225 µM", "value": "6.06 ± 0.84", "unit": "%"}, {"measurement": "percentage of EdU-negative", "setting": "MCF7; [1]", "value": "25.9 ± 0.97", "unit": "%"}, {"measurement": "percentage of EdU-negative", "setting": "MCF7; protein concentration 0.225 µM", "value": "24.2 ± 1.6", "unit": "%"}]}
{"sequence": "MLLLVTSLLLCELPHPAFLLIPEKSDLRTVAPASSLNVRFDSRTMNLSWDCQENTTFSKCFLTDKKNRVVEPRLSNNECSCTFREICLHEGVTFEVHVNTSQRGFQQKLLYPNSGREGTAAQNFSCFIYNADLMNCTWARGPTAPRDVQYFLYIRNSKRRREIRCPYYIQDSGTHVGCHLDNLSGLTSRNYFLVNGTSREIGIQFFDSLLDTKKIERFNPPSNVTVRCNTTHCLVRWKQPRTYQKLSYLDFQYQLDVHRKNTQPGTENLLINVSGDLENRYNFPSSEPRAKHSVKIRAADVRILNWSSWSEAIEFGSDDGNLGSVYIYVLLIVGTLVCGIVLGFLFKRFLRIQRLFPPVPQIKDKLNDNHEVEDEIIWEEFTPEEGKGYREEVLTVKEIT", "values": [{"measurement": "percentage of EdU-negative", "setting": "hTERT-HMEC; [1]", "value": "5.11 ± 0.35", "unit": "%"}, {"measurement": "percentage of EdU-negative", "setting": "hTERT-HMEC; protein concentration 0.225 µM", "value": "4.81 ± 0.71", "unit": "%"}, {"measurement": "percentage of EdU-negative", "setting": "MCF7; [1]", "value": "23.5 ± 1.9", "unit": "%"}, {"measurement": "percentage of EdU-negative", "setting": "MCF7; protein concentration 0.225 µM", "value": "25.3 ± 2.3", "unit": "%"}]}
